Publication PMC3192050, “Structural Basis for Specific Binding of Human MPP8 Chromodomain to Histone H3 Methylated at Lysine 9” (PLoS ONE, 2011)

Tests used:
hMPP8 chromodomain = target: T1, hMPP8 chromodomain (Homo sapiens, UniProt Q99549); assay: Surface plasmon resonance (SPR) binding of histone peptides to hMPP8 chromodomain; details: BIAcore3000, 14°C, synthetic peptide residues 19 to 33, 150 mM NaCl, 20 mM Tris, pH 8.0, 1 mM DTT, Fig. S1F right panel
T1 construct: The chromodomain of human MPP8 (residue 56–116) was inserted into a pET28a-MHL vector; His-tag (cleaved yes); made in house; host or cells: E. coli BL21 (DE3) Codon plus RIL
T1 sequence (Q99549 56-116): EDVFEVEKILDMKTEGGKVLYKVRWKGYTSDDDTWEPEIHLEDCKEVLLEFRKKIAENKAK
Protocol: The binding affinity of hMPP8 chromodomain and histone peptides were determined at 14°C using BIAcore3000 instruments. The biotinylated peptides were immobilized on a streptavidin-coated biosensor chip (SA-Chip). All experiments were carried out in the continuous-follow buffer (150 mM NaCl, 20 mM Tris, pH 8.0, 1 mM DTT). The injected protein sample was flowed for 3 min over the peptide coated SA-Chips at a follow rate of 30 ml/min and the change of response unit (RU) was recorded. Protein dissociation was monitored for 3 min by following the continuous-follow buffer at a follow rate of 30 ml/min over the SA-Chips. The KD was determined by global nonlinear regression fitting of the association and dissociation curves according to the Langmuir binding isotherm model.

[1] = test system: hMpp8 chromodomain mutant, Lys100 mutated to proline; assay: Histone H3K27 peptide pulldown, hMPP8 chromodomain mutant with Lys100 mutated to proline; format: binding, human; details: Fig. S1B
Excerpt: (§1) It is noteworthy that the sequence motif of H3K27 is similar to H3K9 tail (KAARK^27S versus QTARK^9S). However, methylated histone H3K27 cannot interact with hMPP8 chromodomain. To explain why hMPP8 specifically recognizes methylated H3K9, we built a mutant model that hMPP8 binds to methylated H3K27. We mutated residues Gln5 and Thr6 of the QTARK^9S motif to KA to generate a motif of KAARK^9S, which shared the same amino sequence around the K27 site in histone H3. […] To further validate the hypothesis, hMpp8 chromodomain mutants were designed to rescue the binding ability to H3K27me3. Based on our structures, residues Lys100, Glu101 and Val102 were mutated to proline, respectively, to generate enough space where the side chain of Lys5 can insert.
(§2) Supplementary file pone.0025104.s001.tif: Figure S1 hMPP8 specifically recognizes methylated H3K9 rather than H3K27. (A) A mutant structure model for hMPP8 binds to KAARK(me3)S histone motif. Gln5 and Thr6 of the QTARK^9S motif were mutated to KA in this model. (B) Histone H3K27 peptide pulldowns with proteins of wild type hMpp8 chromodomain and indicated mutants, respectively. […] Molecular mass was measured by size exclusion. (F) Binding affinity of hMPP8 chromodomain to H3K4me3 (left panel, measured by ITC method) and H3K27me3 peptide (right panel, measured by SPR method). […]

[2] = test system: hMpp8 chromodomain mutant, Glu101 mutated to proline; assay: Histone H3K27 peptide pulldown, hMPP8 chromodomain mutant with Glu101 mutated to proline; format: binding, human; details: Fig. S1B
Excerpt: as §1, §2

[3] = target: human MPP8 (M-phase phosphoprotein 8) chromodomain (human) (UniProt Q99549); assay: SEC; gel filtration of hMPP8 chromodomain; column buffer 20 mM Tris (pH 8.0), 400 mM NaCl
[4] = target: human MPP8 (M-phase phosphoprotein 8) chromodomain (human) (UniProt Q99549); assay: SEC; size exclusion of hMPP8 chromodomain in the presence or in the absence of H3K9me3 peptide
[5] = Size exclusion chromatography, oligomerization state in solution; format: physicochemical; details: 20 mM Tris (pH 8.0), 400 mM NaCl, Fig. 1D
Excerpt: Figure 1 Overall structure of hMPP8 chromodomain. (A) Sequence alignment of chromodomains of human MPP8, Drosophila HP1 and Drosophila Polycomb. Secondary structural elements (arrows for β strands and rectangles for α helices) are indicated, η represent 3_10 helix. Methylated H3K9 binding residues are marked by stars. Residues involved in dimerization of human Mpp8 and Drosophila Polycomb are marked by diamonds and triangles, respectively. The alignment was created with Espript (http://espript.ibcp.fr/Espript/Espript). (B) Cartoon representation of the crystal structure of hMPP8 chromodomain. The two subunits of the homodimer are colored in cyan and green, respectively, and the secondary structure regions in both proteins are marked. (C) Interactions between the two subunits of the hMPP8 chromodomain homodimer. The dimer interface is formed by strand β2 through an antiparallel arrangement. (D) Gel filtration of hMPP8 chromodomain (left panel). The column buffer was 20 mM Tris (pH 8.0), 400 mM NaCl. The molecular weight of hMPP8 chromodomain monomer was measured using tricine-SDS-PAGE (right panel). TEXT PRINTED IN THE PICTURE: (D) no label printed: 100.09 ml (13.6 kDa)
To determine the oligomerization state of hMPP8 chromodomain in solution, size exclusion experiment was performed. […] The molecular weight of hMPP8 chromodomain monomer is about 8.0 kD. […]

For “H3K27me3: synthetic H3K27me3 (residues 19 to 33) peptide (QLATKAARKSAPATG; K27 trimethylation; UniProt P68431 20-34, looked up, fragment)”, the “binding (SPR)” value (hMPP8 chromodomain) was “does not exhibit detectable binding”, the “binding in peptide pulldown” value [1] was “able to bind H3K27me3 peptide weakly” and the “binding in peptide pulldown” value [2] was “able to bind H3K27me3 peptide weakly”.

In the case of “human MPP8 (M-phase phosphoprotein 8) chromodomain (from UniProt Q99549 56-116) (domain or fragment)”, the stoichiometry N [3] is reported as 2 and the stoichiometry N [4] is reported as 2.

B1: hMPP8 chromodomain: recombinant chromodomain of human MPP8 (residue 56–116), expressed in BL21 (DE3) Codon plus RIL (protein, UniProt Q99549 56-116, looked up, fragment)
chain: T1 sequence (Q99549 56-116)
modifications: chromodomain
notes: recombinant chromodomain of human MPP8 (residue 56–116), expressed in BL21 (DE3) Codon plus RIL
With B1 the “oligomerization state in solution” value ([5]; free form) was “homodimer” and the “apparent molecular weight in solution” value ([5]; monomer about 8.0 kD) was 13.6 kD.
